The record followed here is the supplement of paper PMC10724198.

The subject of data set [1] is Saccharomyces cerevisiae. Put plainly: protein stability index of tFT-peptide fusion (C-terminal peptide) (PSI (0-1 scale)); higher = more stable (slower turnover). As to conditions: genetic background: wild type; temperature: 30 C.
Data set [2] concerns Saccharomyces cerevisiae. The data set is described as above. The method, then: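 MPS profiling in S. cerevisiae of the tFT-X12 degron library: putative degron peptides plus stable controls, 12 aa, fused to the C-terminus of a sfGFP-mCherry timer. Cells are FACS-sorted into 8 mCherry/sfGFP bins and deep-sequenced. PSI runs from 0 (unstable) to 1 (stable). Backgrounds are wild type, das1Δ and doa10Δ at 30 °C, and wild type, das1Δ, cdc34-1 and cdc53-1 at 37 °C; 2-3 technical replicates each.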

Where [3] appears, read: genetic background: cdc34-1, temperature: 37 C.
The mark [4] stands for this setting: genetic background: cdc53-1, temperature: 37 C.
Setting [5] is: genetic background: das1 deletion, temperature: 30 C.
Where [6] appears, read: genetic background: das1 deletion, temperature: 37 C.
Where [7] appears, read: genetic background: doa10 deletion, temperature: 30 C.
Where [8] appears, read: genetic background: wild type, temperature: 30 C.
Setting [9] is: genetic background: wild type, temperature: 37 C.

± gives the standard deviation of the averaged measurements.
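Note: PSI is a weighted mean of sequencing reads over stability bins, variants kept only with over 10 reads, mCherry proximal and sfGFP distal, peptide attached via GGGS linker.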

For the sequence ARKWVAVTVTLW, the protein stability index came out at 0.267 ± 0.043 in the data set on Saccharomyces cerevisiae [1]; 0.137 ± 0.038 in the data set on Saccharomyces cerevisiae [2] (setting [3]); 0.232 ± 0.013 with Saccharomyces cerevisiae [2] (setting [4]); 0.187 ± 0.036 with Saccharomyces cerevisiae [2] (setting [5]); 0.3519 ± 0.00085 in the data set with Saccharomyces cerevisiae [2] (setting [6]); 0.148 ± 0.021 in the data set on Saccharomyces cerevisiae [2] (setting [7]). Moreover, the figures for the protein stability index with Saccharomyces cerevisiae [2] (setting [8]) and in the data set on Saccharomyces cerevisiae [2] (setting [9]) were 0.189 ± 0.029 and 0.317 ± 0.011, respectively.

For the sequence ARVSLSFVSVSA, the protein stability index in the data set with Saccharomyces cerevisiae [1] came to 0.404 ± 0.015; in the data set with Saccharomyces cerevisiae [2] (setting [3]) it was 0.4168 ± 0.004; with Saccharomyces cerevisiae [2] (setting [4]) it was 0.442 ± 0.012; in the data set on Saccharomyces cerevisiae [2] (setting [5]), 0.279 ± 0.03; in the data set with Saccharomyces cerevisiae [2] (setting [6]), 0.494 ± 0.007; in the data set with Saccharomyces cerevisiae [2] (setting [7]), 0.225 ± 0.0052. Also, the protein stability index with Saccharomyces cerevisiae [2] (setting [8]) is 0.281 ± 0.014; in the data set with Saccharomyces cerevisiae [2] (setting [9]), 0.4672 ± 0.0023.

As for ARWNTDRRRRQL, the protein stability index in the data set with Saccharomyces cerevisiae [1] came to 0.421 ± 0.017; in the data set on Saccharomyces cerevisiae [2] (setting [3]) it was 0.6089 ± 0.0047; in the data set on Saccharomyces cerevisiae [2] (setting [4]) it was 0.711 ± 0.024; with Saccharomyces cerevisiae [2] (setting [5]), 0.688 ± 0.045; with Saccharomyces cerevisiae [2] (setting [6]), 0.7022 ± 0.0017; in the data set on Saccharomyces cerevisiae [2] (setting [7]), 0.236 ± 0.0035. The protein stability index in the data set on Saccharomyces cerevisiae [2] (setting [8]) came to 0.253 ± 0.034; in the data set on Saccharomyces cerevisiae [2] (setting [9]), 0.502 ± 0.025.

Consider ASIEVGNVIKQM, for which the protein stability index in the data set on Saccharomyces cerevisiae [1] turned out to be 0.518 ± 0.037; with Saccharomyces cerevisiae [2] (setting [3]), 0.672 ± 0.051; in the data set on Saccharomyces cerevisiae [2] (setting [4]), 0.7189 ± 0.0025; in the data set on Saccharomyces cerevisiae [2] (setting [5]), 0.627 ± 0.036; in the data set on Saccharomyces cerevisiae [2] (setting [6]) it was 0.7202 ± 0.0061; in the data set with Saccharomyces cerevisiae [2] (setting [7]), 0.375 ± 0.0075. For the same sequence, the protein stability index came to 0.43 ± 0.019 in the data set with Saccharomyces cerevisiae [2] (setting [8]) and 0.632 ± 0.027 in the data set with Saccharomyces cerevisiae [2] (setting [9]).

Regarding ASSSPAPYAPYT, the protein stability index stood at 0.635 ± 0.23 in the data set on Saccharomyces cerevisiae [1]; 0.7006 ± 0.0052 with Saccharomyces cerevisiae [2] (setting [3]); 0.7559 ± 0.0043 in the data set with Saccharomyces cerevisiae [2] (setting [4]); 0.647 ± 0.031 with Saccharomyces cerevisiae [2] (setting [5]); 0.76 ± 0.029 in the data set with Saccharomyces cerevisiae [2] (setting [6]); 0.634 ± 0.03 in the data set on Saccharomyces cerevisiae [2] (setting [7]). For the same sequence, the protein stability index with Saccharomyces cerevisiae [2] (setting [8]) was determined as 0.642 ± 0.025; in the data set on Saccharomyces cerevisiae [2] (setting [9]), 0.744 ± 0.017.

As for ATAVMILCFRWC, the protein stability index stood at 0.419 ± 0.053 in the data set on Saccharomyces cerevisiae [1]; 0.392 ± 0.0051 in the data set with Saccharomyces cerevisiae [2] (setting [3]); 0.492 ± 0.018 in the data set with Saccharomyces cerevisiae [2] (setting [4]); 0.329 ± 0.041 in the data set with Saccharomyces cerevisiae [2] (setting [5]); 0.526 ± 0.013 in the data set with Saccharomyces cerevisiae [2] (setting [6]); 0.2872 ± 0.0016 with Saccharomyces cerevisiae [2] (setting [7]). The protein stability index in the data set on Saccharomyces cerevisiae [2] (setting [8]) turned out to be 0.308 ± 0.015; with Saccharomyces cerevisiae [2] (setting [9]), 0.4711 ± 0.00051.

Consider AVLAALVSTLAG, for which the protein stability index with Saccharomyces cerevisiae [1] is 0.4785 ± 0.00075; with Saccharomyces cerevisiae [2] (setting [3]), 0.548 ± 0.019; in the data set with Saccharomyces cerevisiae [2] (setting [4]), 0.565 ± 0.0091; with Saccharomyces cerevisiae [2] (setting [5]), 0.383 ± 0.024; in the data set on Saccharomyces cerevisiae [2] (setting [6]), 0.5888 ± 0.0053; in the data set on Saccharomyces cerevisiae [2] (setting [7]), 0.349 ± 0.013. Further, the protein stability index was found to be 0.406 ± 0.028 in the data set with Saccharomyces cerevisiae [2] (setting [8]) and 0.553 ± 0.026 in the data set on Saccharomyces cerevisiae [2] (setting [9]).

For AVPTSPYSLIVY, the protein stability index in the data set on Saccharomyces cerevisiae [1] is 0.476 ± 0.022; with Saccharomyces cerevisiae [2] (setting [3]) it was 0.524 ± 0.0083; in the data set with Saccharomyces cerevisiae [2] (setting [4]), 0.495 ± 0.088; in the data set with Saccharomyces cerevisiae [2] (setting [5]) it was 0.367 ± 0.0063; in the data set with Saccharomyces cerevisiae [2] (setting [6]), 0.54146 ± 0.00044; in the data set on Saccharomyces cerevisiae [2] (setting [7]), 0.326 ± 0.011. For the same sequence, the protein stability index amounted to 0.337 ± 0.021 in the data set with Saccharomyces cerevisiae [2] (setting [8]) and 0.485 ± 0.011 in the data set on Saccharomyces cerevisiae [2] (setting [9]).

In the case of AWGSWTLCVAVH, the protein stability index in the data set on Saccharomyces cerevisiae [1] turned out to be 0.151 ± 0.011; with Saccharomyces cerevisiae [2] (setting [3]), 0.0257 ± 0.0088; with Saccharomyces cerevisiae [2] (setting [4]) it was 0.0323 ± 0.0061; in the data set on Saccharomyces cerevisiae [2] (setting [5]) it was 0.0888 ± 0.043; in the data set with Saccharomyces cerevisiae [2] (setting [6]), 0.0713 ± 0.01; in the data set with Saccharomyces cerevisiae [2] (setting [7]), 0.07331 ± 0.00055. For the same sequence, the figures for the protein stability index in the data set on Saccharomyces cerevisiae [2] (setting [8]) and in the data set on Saccharomyces cerevisiae [2] (setting [9]) were 0.089 ± 0.027 and 0.0602 ± 0.015, respectively.

As for AWWMALAVPIVA, the protein stability index in the data set with Saccharomyces cerevisiae [1] was 0.0514 ± 0.042; in the data set on Saccharomyces cerevisiae [2] (setting [3]) it was 0.02 ± 0.0012; in the data set on Saccharomyces cerevisiae [2] (setting [4]), 0.0219 ± 0.0076; with Saccharomyces cerevisiae [2] (setting [5]), 0.103 ± 0.025; in the data set on Saccharomyces cerevisiae [2] (setting [6]), 0.0676 ± 0.013; in the data set on Saccharomyces cerevisiae [2] (setting [7]), 0.0817 ± 0.02. Also, the protein stability index was 0.1 ± 0.023 in the data set with Saccharomyces cerevisiae [2] (setting [8]) and 0.062 ± 0.00098 in the data set on Saccharomyces cerevisiae [2] (setting [9]).

With CCFVGLRYVLWV, the protein stability index in the data set on Saccharomyces cerevisiae [1] is 0.365 ± 0.009; with Saccharomyces cerevisiae [2] (setting [3]) it was 0.431 ± 0.022; in the data set on Saccharomyces cerevisiae [2] (setting [4]), 0.5 ± 0.018; in the data set with Saccharomyces cerevisiae [2] (setting [5]), 0.345 ± 0.029; in the data set with Saccharomyces cerevisiae [2] (setting [6]), 0.531 ± 0.0061; in the data set with Saccharomyces cerevisiae [2] (setting [7]), 0.278 ± 0.012. The figures for the protein stability index in the data set on Saccharomyces cerevisiae [2] (setting [8]) and in the data set with Saccharomyces cerevisiae [2] (setting [9]) were 0.288 ± 0.0082 and 0.462 ± 0.015, respectively.

Turning to CCLGVIASFIVW, the protein stability index in the data set with Saccharomyces cerevisiae [1] turned out to be 0.3579 ± 0.0021; with Saccharomyces cerevisiae [2] (setting [3]) it was 0.247 ± 0.01; in the data set on Saccharomyces cerevisiae [2] (setting [4]), 0.435 ± 0.15; in the data set with Saccharomyces cerevisiae [2] (setting [5]), 0.284 ± 0.036; with Saccharomyces cerevisiae [2] (setting [6]), 0.455 ± 0.024; with Saccharomyces cerevisiae [2] (setting [7]), 0.236 ± 0.0065. Further, the protein stability index in the data set with Saccharomyces cerevisiae [2] (setting [8]) amounted to 0.254 ± 0.036; with Saccharomyces cerevisiae [2] (setting [9]) it was 0.408 ± 0.0049.

For the sequence CFLLSYRWVFLC, the protein stability index in the data set on Saccharomyces cerevisiae [1] amounted to 0.0949 ± 0.027; in the data set on Saccharomyces cerevisiae [2] (setting [3]), 0.0855 ± 0.0055; with Saccharomyces cerevisiae [2] (setting [4]), 0.0678 ± 0.0095; in the data set with Saccharomyces cerevisiae [2] (setting [5]) it was 0.177 ± 0.033; in the data set on Saccharomyces cerevisiae [2] (setting [6]), 0.2381 ± 0.0016; with Saccharomyces cerevisiae [2] (setting [7]), 0.0531 ± 0.0053. Also, the protein stability index in the data set on Saccharomyces cerevisiae [2] (setting [8]) is 0.0411 ± 0.018; in the data set with Saccharomyces cerevisiae [2] (setting [9]) it was 0.0605 ± 0.03.

For CFSIPLVILNVL, the protein stability index stood at 0.413 ± 0.0076 in the data set with Saccharomyces cerevisiae [1]; 0.468 ± 0.018 in the data set on Saccharomyces cerevisiae [2] (setting [3]); 0.496 ± 0.02 in the data set on Saccharomyces cerevisiae [2] (setting [4]); 0.431 ± 0.018 with Saccharomyces cerevisiae [2] (setting [5]); 0.531 ± 0.025 with Saccharomyces cerevisiae [2] (setting [6]); 0.335 ± 0.0063 with Saccharomyces cerevisiae [2] (setting [7]). Moreover, the protein stability index was 0.338 ± 0.02 in the data set on Saccharomyces cerevisiae [2] (setting [8]) and 0.455 ± 0.0097 with Saccharomyces cerevisiae [2] (setting [9]).

Take CFWLLSSLLLFL: the protein stability index in the data set with Saccharomyces cerevisiae [1] worked out at 0.453 ± 0.019; in the data set on Saccharomyces cerevisiae [2] (setting [3]), 0.462 ± 0.016; with Saccharomyces cerevisiae [2] (setting [4]), 0.474 ± 0.0089; in the data set on Saccharomyces cerevisiae [2] (setting [5]), 0.429 ± 0.017; with Saccharomyces cerevisiae [2] (setting [6]), 0.5398 ± 0.0016; in the data set on Saccharomyces cerevisiae [2] (setting [7]), 0.492 ± 0.0067. The protein stability index was found to be 0.416 ± 0.034 with Saccharomyces cerevisiae [2] (setting [8]) and 0.514 ± 0.0075 in the data set on Saccharomyces cerevisiae [2] (setting [9]).

CFYVGFLGYFVF: the protein stability index in the data set on Saccharomyces cerevisiae [1] was 0.42 ± 0.0044; in the data set with Saccharomyces cerevisiae [2] (setting [3]) it was 0.447 ± 0.026; in the data set on Saccharomyces cerevisiae [2] (setting [4]), 0.556 ± 0.005; in the data set with Saccharomyces cerevisiae [2] (setting [5]) it was 0.357 ± 0.04; in the data set on Saccharomyces cerevisiae [2] (setting [6]), 0.55 ± 0.027; in the data set with Saccharomyces cerevisiae [2] (setting [7]) it was 0.342 ± 0.0064. Also, the protein stability index worked out at 0.367 ± 0.011 with Saccharomyces cerevisiae [2] (setting [8]) and 0.505 ± 0.014 in the data set with Saccharomyces cerevisiae [2] (setting [9]).

Take CGLGKVLGWRWV: the protein stability index in the data set with Saccharomyces cerevisiae [1] amounted to 0.4241 ± 0.0014; in the data set on Saccharomyces cerevisiae [2] (setting [3]), 0.643 ± 0.036; in the data set with Saccharomyces cerevisiae [2] (setting [4]), 0.7267 ± 0.002; in the data set with Saccharomyces cerevisiae [2] (setting [5]), 0.64 ± 0.015; with Saccharomyces cerevisiae [2] (setting [6]), 0.745 ± 0.023; with Saccharomyces cerevisiae [2] (setting [7]), 0.185 ± 0.0019. Besides, the protein stability index with Saccharomyces cerevisiae [2] (setting [8]) came to 0.227 ± 0.01; with Saccharomyces cerevisiae [2] (setting [9]), 0.5193 ± 0.0018.
